Measurements reported in article PMC5882645, “NMR Structure, Dynamics and Interactions of the Integrin β2 Cytoplasmic Tail with Filamin Domain IgFLNa21” (Scientific Reports, 2018).
No end group written: not given here.

T1: IgFLNa21 domain of filamin A (Gly2236-Ser2329) (UniProt P21333 2236-2329)
T1 construct: filamin A, Ig-like repeat 21 (IgFLNa21), residues Gly2236-Ser2329; The same range also stands as the C-terminal part of the hybrid chain m5 (cloned in pET14b); the rows on the hybrid use m1 for this domain; also called IgFLNa21 filamin; wild-type IgFLNa21; source: E. coli rosetta, synthetic gene in pET24a, 15N/13C-labelled, purified (Ni-NTA, size-exclusion chromatography)
T1 sequence (looked up): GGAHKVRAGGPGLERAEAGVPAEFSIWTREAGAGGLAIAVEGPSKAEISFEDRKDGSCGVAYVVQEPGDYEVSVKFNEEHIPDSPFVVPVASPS


Assays:
[1] = target: T1, IgFLNa21 domain of filamin A …; experiment: NMR titration; 15N-1H HSQC of IgFLNa21 (100 μM) with sequential additions of peptide at 1:0, 1:1, 1:2 and 1:3 ratios; 298 K; 25 mM sodium phosphate, 5 mM NaCl, 2 mM DTT, 10% D2O, pH 6.5; conditions: both partners purified
[2] = target: T1, IgFLNa21 domain of filamin A …; experiment: NMR structure; solution structure of the hybrid chain (β2 CT 752-763 joined to IgFLNa21 by the linker …), 300 μM, 298 K; CYANA, refined by X-plor-NIH with explicit water; conditions: both partners purified

binding result [1]	binding result [2]	Binder
binds		KALIHLSDLREYRRFEKEKLKSQWNNDNPLFKSATTTVMNPKFAES (peptide, UniProt P05107 724-769, looked up, integrin β2 cytoplasmic tail, residues 724-769; also called full length integrin β2 CT; integrin β2 cytoplasmic tail; source: synthetic peptide, bought: GLBioChem (Shanghai), further purified by reverse phase HPLC) [Synthetic integrin full-length β2-CT (residues 724-769)]
	binds	PLFKSATTTVMN (also: fused via GASGSGASGS linker to IgFLNa21 N-terminus, also called β2 CT peptide; β2 CT part of hybrid IgFLNa21; source: E. coli rosetta, purified (Ni-NTA, size-exclusion chromatography) as the N-terminal part of the hybrid chain) [C-terminal filamin-binding region (P752-N763) of integrin β2 CT, as it stands in the hybrid IgFLNa21]
